# Results reported in the DeepSol protein solubility set.
# Assay: soluble on expression in E. coli; label from the status in PepcDB or PDB records
row,Sequence,soluble on expression in E. coli
1,MGHHHHHHSHLSFHFPPRVTGHPWSLVFCTSRDGFSLQSLYRRMEGCSGPVLLVLRDQDGQIFGAFSSSAIRLSKGFYGTGETFLFSFSPQLKVFKWTGSNSFFVKGDLDSLMMGSGSGRFGLWLDGDLFRGGSSPCPTFNNEVLARQEQFCIQELEAWLLS,not soluble
2,MNLPLEYHPFPAILPKSATVAMLGTFPPTSEKRCMEFHYPNFQNDMWRIMGLLFYKNLDHFRVDQEKRFDPVRIEAFLREKGIALCSSAQTAIRLKGNASDKDLKIIDAIDMQALLTELPQLKWLFTTGGLATETLLSLLPEKSKLPKTNEWINYPYTTDRTLYLYRLPSTSRAYPLSLAKKVEAYRQFFVRVGLEHHHHHH,not soluble
3,MNIVIAAVGGQGAVLTSKILGTLAQNLGKDVKVSEVHGMSQRGGSVVAYVKFGDKVYSPVVEKGTADIVLAFEMLEGARYVDYLKENGKLVVNTQRIDPMPVITGDMEYPADLGEKLEELNIGYIPVDALSLAKNAGTIKAVNVALIGVLAQNSNIKKEEWIKAIKDTVPEKFLELNLKAFELGYNL,not soluble
4,MSETVKLDVGGTIFKTSRSTLTKFNGFFKTMLESDIGLKIDESGSIFIDRSPKNFDLILNFMRDGDVVLPNCELKLKELLVEAQFYLLDGLIELCNSKIELVEAPKIKLRFIESDEQFLQILAVQQKPMLIIEFCMVGNDMSIPYNFNLYEFMEKYSHQFDIYFRKFFVHYPHKIVNSERLSEDEPSRKWKARIKWKPTENGYYSQFPHNLRINRGGRIIRDATFLERLEKMIGEFDEYLKKQRNR,not soluble
5,MWIIEAEGDILKGKSRILFPGTYIVGRNVSDDSSHIQVISKSISKRHARFTILTPSEKDYFTGGPCEFEVKDLDTKFGTKVNEKVVGQNGDSYKEKDLKIQLGKCPFTINAYWRSMCIQFDNPEMLSQWASNLNLLGIPTGLRDSDATTHFVMNRQAGSSITVGTMYAFLKKTVIIDDSYLQYLSTVKESVIEDASLMPDALECFKNIIKNNDQFPSSPEDCINSLEGFSCAMLNTSSESHHLLELLGLRISTFMSLGDIDKELISKTDFVVLNNAVYDSEKISFPEGIFCLTIEQLWKIIIERNSRELISKEIERLKYATASNSTPQKIAAALEHHHHHH,soluble
6,MDMPKPPFVIYKGKVEEEFARLHKDGKSLLKAESKFVQFLGLQELTDRACDHVELANPTKNTIIFNIRTPTSPCFFVKPHVGMIDPGGKATLYFTFKGRCHRVPSDYCWIYSIYQLVVDEKTTAFIKEDEFSSQNLRSAWIKHGRKQVNNILHLASSFKAGKPKFECRDGHRKFLERKIYLNDLGDVENSGKSKTENTTDITPANMKKGKLNKAASSDTMDDLPKTAD,not soluble
7,GPGSMPQPSALQSARSFLGTVAEDSVRCDRGLDSVPHNEAGLRCLAADGNWSAVAELAERLSAAATEETAEGLSRRLQFILVQVTANFHMQRYNVAKKLVESLGDLNSERYIDPKTSESTVPFSLRFISAIIPLYIGTKMDSQQRLYALLRDCRENLGKYASAVWVARIKRVQRALVVSHYQVEQYSEALRIYNELIAVEGNADGDDMGSYALLRRMLHLHQFAALALFCGNASFANSIYQSIASINVSEAAPCVQNFHECLVDFNTGIWLSFNGKVQDSMKVFCDVATKSREYYCALGASQLMSTDVPTVSNRQLKFVADGCDALALSELCRHAFHQLLVNATTSHVVTMPYEALRGKAPATMLGGTIRTMEDYLRNDPAGLLSSDAFISNGVRLYTLEGGTQMRRLELLNDLIEVFRCDRASAPPIDKIV,not soluble
8,MPGAPSFIALDWGTSSLRAWRFGESPNPQEKREFPWGIMKLPSQAATREDAFHDTFLRVCGDWLAQTPCPVLACGMLGSAQGWQSAAYLPCPVTLEGLAKQLTPVIHQQQTMLHIIPGVIKEGEMPEVMRGEETQIFGAISMEPALQNAIHQGMPVLIGLPGTHAKWAVVENNTITDFRTFMTGELFDVLSRHSILGATMHPGDEPHWDAFTHGLTAAQEHHQTGLLSTLFSTRSRLLTSNLTSSSQGDYLSGLLIGHELCGLASSLLRDLPATTPIALIGSANLNSRYSQAFSHVFPGRQIHAIPNATEQGLWRIAHAAGLLSTNARECTHAI,not soluble
9,MGHHHHHHSHALPAGEWGTVQLRGSWRVGQTAGGSRNFASYPTNPCFPFSVPEGPGPRCVRITLHQHCRPSDTEFHPIGFHIFQVPEGGRSQDAPPLLLQEPLLSCVPHRYAQEVSRLCLLPAGTYKVVPSTYLPDTEGAFTVTIATRIDRPSIHSQEMLGQFLQEVSVMAVMKT,soluble
10,MGSDKIHHHHHHMRVDVMVIGAGAAGMAAALKAKEEGAEVLLVERDERTGGILNQCIHNGFGLHYFRQELTGPEYAERFQEKMEKMGIRALTNAYVKRVEDRRVILVTEQGIEEVEVGALVYATGARERPFGSLMIPGDRPSGIFTAGVAQRLINIENRLPGKRALILGSGDIGLIMARRLTLEGMEVVGVVERLPYAGGLLRNVIQCLEDYNIPLYLSSTVVEVRGRERLEEVVVAKVDEQFRPIPRTERVFKVDTLVLSVGLIPQVELIENLVVKNPTSRGVGVSNIGQTSRDWIFSAGNCTVIFDLVDYVSYEGETAGRYAAKFVKGEIPREKIPVRPGKNVMVVHPIWYTPAEPLTLYLRVKKPMEKGRLVVGRFAREFEDLVPSEMLRVKISDRDLEGLDEIVVSVEEVN,not soluble
11,AHHHHHHGSVEQDPYEIVIKQLERAAQYMEISEEALEFLKRPQRIVEVTIPVEMDDGSVKVFTGFRVQHNWARGPTKGGIRWHPEETLSTVKALAAWMTWKTAVMDLPYGGGKGGIIVDPKKLSDREKERLARGYIRAIYDVISPYEDIPAPDVYTNPQIMAWMMDEYETISRRKTPAFGIITGKPLSIGGSLGRIEATARGASYTIREAAKVLGWDTLKGKTIAIQGYGNAGYYLAKIMSEDFGMKVVAVSDSKGGIYNPDGLNADEVLKWKNEHGSVKDFPGATNITNEELLELEVDVLAPAAIEEVITKKNADNIKAKIVAEVANGPVTPEADEILFEKGILQIPDFLCNAGGVTVSYFEWVQNITGYYWTIEEVRERLDKKMTKAFYDVYNIAKEKNIHMRDAAYVVAVQRVYQAMLDRGWVKH,soluble
12,GHMKSEKEKMLAGHLYNPADLELVKERERARRLVRLYNETLETEYDKRTGLLKELFGSTGERLFIEPNFRCDYGYNIHVGENFFMNFDGVILDVCEVRIGDHCFIGPGVHIYTATHPLDPHERNSGLEYGKPVVIGHNVWIGGRAVINPGVTIGDNAVIASGAVVTKDVPANAVVGGNPAKVIKWLK,soluble
13,MGSDKIHHHHHHMIDVEEILSKMNLNQKINYDRVMQKMVQVWEKNEQRPTILMHVCCAPCSTYTLEYLTKYADVTIYFANSNIHPKAEYHKRAYVTKKFVSDFNERTGNSVQYLEAPYEPNEYRKLVRGLEEEPEGGDRCQVCFDYRLDKTAQVAMDLGFDYFGSALTISPHKNSQTINSIGIDVQKIYTTHYLPSDFKKNQGYKRSVEMCEEYDIYRQCYCGCVYAAQAQNIDLVQVKKDATAFLLDKDVEKDYSHIKFTVTKLDI,not soluble
14,MGSDKIHHHHHHMLTTLAIGNYRSINHLVLPLSQLNLVTGANGSGKSNLYKALRLLAETAQGGVVEALAREGGLDSTWWAGPETSARMRRGEVPIQGQHPSEVRRLRLGFATEDLGFAITLGLPIPLPYPSAFMLDPEIKCEAIWGAGAYRPSSLLVERKNALVRAREGNRWAVLDQHADSGESFFNIVGRPRQAPEIGDLRAFINSWRFYDHFRIDRDAPCRQPQLGTRSPVLHHDGRNLASALQTIIEIGDVEDLEEALNDAFPGSRLEINAPPGGLFSVRLHQHGLLRPLEGAELSDGTLRYLLLMAALLTPRPPSLMVLNEPETSLHADLLPALARLIIRASRRSQVWVVSHSAPLINALAACDGCNVLELEKIQGQTQLRGVGLLDEPLWRWAD,not soluble
15,AHHHHHHGSKEEEIHVDPQIVKNITEILKNIKKMKVKQDKRVKWRRENDGRIITFNPITGKICVMNPTLAEIYVMTKNPKGCTFETLIRTLKQRFPSIDEKQLESDILRAMTWLFINGFVYLEDTSKKSKKINIVDVIMEISNQKRGPRQ,not soluble
16,MVSAMSNIWSNWSGFVTAEPRLIASPADAGELGDLVRTAPGPVRVVGAGHSFTPLVKSQGTILSLEKLEGLVSHDPQKHQARVKAGTRLGPLMHILQGIGQGLPNMGDIDRQAIGGALGTATHGSGPTLGAYHTQLETVQIVDGLGKVRDFTRAGDQDMIHAIGVALGAFGVLSEVTLNNIATYRLRRRKWVLPIGDMLRDFEKMMTAHRSAEFYYIPFSGYAQFIASDFSTEATTTRPTDDDEGSLRTLRRLRTGLAWLPSLRRRLILGAVAKVPSEDYVQDWLNVYASDRQTKFNEMEYHLPFEEGPKALAEIIELTEKRFPEVYFPMEVRSVAPDKFWLSPFYNRPTCSIAIHHDAASDPLPFMQAAEPIFRRYGGRPHWGKMHSLKAADFKKLYPRWDDAMAVRRDIDPQNRFVSPYMAGLFGIEPSPFGIDPLEHHHHHH,not soluble
17,MGSDKIHHHHHHMSIKSDKWIRRMSEEFGMIDPFEPNQIKEADGQRIISYGTSSYGYDIRCANEFKIFTNINSTIVDPKNFDPKNFVTVEDDCCIIPPNSFALARTVEYFRIPRNVLTVCLGKSTYARCGIIVNVTPFEPEWEGYVTLEFSNTTPLPAKIYAGEGVAQVLFFESDEVCETSYKDRNGKYMGQTGVTLPKA,not soluble
18,MSLIDRYILAIESSCDETSVAILKNEDQLLSNIIASQVESHKRFGGVVPEVASRHHVEVITLCIQDALQEAGITAGDLSAVAVTYGPGLVGALLVGMAAAKAFAWANHLPLIPVNHMAGHLMAAQSIADLQYPLLALLVSGGHTELVYVAAPGDYRIVGETRDDAVGEAYDKVGRVMGLTYPAGKEIDQLAHQGQDIYDFPRAMIKEDNLEFSFSGLKSAFINLHHNARQKGEQLRLEDLCASFQAAVLDILMVKTKKALAAYPVKTLVIAGGVAANQGLRERLKEDIKDINVVIPPLRLCGDNAGMIAYAAAVEYEKGHFAELDLNAKPSLAFEGLEEGHHHHHH,soluble
19,GHMPTKQQLLYEGKAKKIYATDEPDVLWVEYKDSATAFNGEKKATIAGKGRLNNEISSLLFLKLREAGIANHFIEKLSPTEQLVRRVTIIPLEVVVRNVVAGSLAKRIGLEEGTPLEAPLVEFYYKNDDLGDPLLLEDHIFILKLASREEVAALKQAALAVNDVLRLHFAERNVRLIDFKLEFGRTADGAILLADEISPDTCRLWDAKTNEKLDKDVFRRDLGSLTDAYEVILQRLGGESACTK,soluble
20,MGLMKKFRDYFLEEDYEDYDEEYEAPQPEEEAPPKTAGKANVVSLQSVQKSAKVVLAEPRVYAEAQEIADHLKSRRAVIVNLQRIQHEQAKRIVDFLSGTVYAIGGDIQQVGTKIFLCTPENVDVSGSISLDGEDDRPMKRW,not soluble
21,MGSDKIHHHHHHMKKVLVAGATGYLGRYAVQEFKNRGYWVRALVRNPEKFKKPGPFFAPEIDTLVDDVVFGDATKPETIAGLCDGIDVVFSSLGMIKPDFEHDNFDVDYQGNMNILAEALKAGVKKFVYVSVFDAHRMMNIPNVQAHEKFVRELQAAKIESTIIRPNGFFSEIGQFVARARRGFMLWIGDGYNRQNPIHGADLAKVCADAVDSSEKEIEVGGPEVFTYREMVDLAIEIAGTQPVQVSLPFWLADGIVGVLGLFNRDVHDVALFATTLSKMDFVSPKYGTHRLRDFFNECKLLPL,not soluble
22,MEPPLWVFGYGSLIWDPGFPVARSVIARLDGWHRSFCMHSIHYRGTATDPGLVLALDAAPGGACLGVGFQVTPGAEAETLAALRKRELISNAYLERWLPVTLATGETVEAVSYVIDPDHGQYCGGLDLEAQAQIIARAAGERGPNRDYLLHTVAHLQSLGISDPDLCWLATRVRALGNDPVSAAALEHHHHHH,not soluble
